Measured values published in article PMC9369050.
Where “and” joins values, the source holds several entries; their conditions need not be identical. Identical values can stand only once.

Columns and labels:
[1] = target: Bacterial His-tagged Reg-1α (human regenerating islet-derived protein 1-alpha) (human) (UniProt P05451); assay: cross-linking; 10 mM EDC/NHS, up to 30 min (0, 15, 30 min); Reg-1α with inactive calpain-2 at molar ratio 2/1, or Reg-1α alone; 50 mM Hepes pH 7.3, 100 mM NaCl, 1 mM DTT, 1 mM EGTA; SDS-PAGE 4-15% and immunodetection with anti-Reg-1α and anti-calpain-2
[2] = target: Bacterial His-tagged Reg-1α (human regenerating islet-derived protein 1-alpha) (human) (UniProt P05451); assay: SDS-PAGE with immunoblot, no cross-linker; bands of oligomers that persist in SDS-PAGE, detected with anti-Reg-1α (Figure 1C; time 0 of Figure 2A)
[3] = target: Calpain-2-cleaved Reg-1α (Reg-1αΔN1-4) (human); assay: as above

Row | stoichiometry N [1] | stoichiometry N [2] | stoichiometry N [3] | Substance
1 | 4 | 2 and 3 |  | Bacterial His-tagged Reg-1α (human regenerating islet-derived protein 1-alpha) (from UniProt P05451 23-166) (natural protein)
2 |  |  | 2 | Calpain-2-cleaved Reg-1α (Reg-1αΔN1-4) (domain or fragment)
